Consider 7 molecules from article PMC8411744, “Engineering a Highly Efficient Carboligase for Synthetic One-Carbon Metabolism” (ACS Catalysis, 2021).

As a reminder, the Km is the substrate concentration at which the rate is half of its maximum. Usually kcat/Km stands for the turnover number divided by the Michaelis constant.

Series [1] addresses T1, MeOXC (OXC, oxalyl-CoA decarboxylase) (Methylorubrum extorquens, UniProt C5AX46).
T1 construct: gene MexAM1_META1p0990; recombinant, produced in E. coli; purified; homotetramer; ThDP and Mg2+ dependent
In words: X-ray crystal structure, […] Å. Format: binding. The conditions noted are these: Mg2+; C-terminal 16 residues modelled.

The target of series [2] is T2, MeOXC (OXC, oxalyl-CoA decarboxylase) (Methylorubrum extorquens, UniProt C5AX46, E135G/A415C/Y497F/S568G).
T2 construct: gene MexAM1_META1p0990; recombinant, produced in E. coli; purified; homotetramer; ThDP and Mg2+ dependent
Nature of the series: X-ray crystal structure, […] Å. Format: binding. The conditions noted are these: MeOXC4; Mg2+; C-terminus beyond E567 modelled. From the text:
Substitution E135G gave rise to a cavity in the ThDP binding pocket

Substrate in series [3]: CC(C)(COP(=O)(O)OP(=O)(O)OC[C@H]1O[C@@H](n2cnc3c(N)ncnc32)[C@H](O)[C@@H]1OP(=O)(O)O)[C@@H](O)C(=O)NCCC(=O)NCCSC(=O)C(=O)O
Nature of the series: oxalyl-CoA decarboxylation kinetics. Format: biochemical, Methylorubrum extorquens. The following applies: MeOXC4.

Substrate in series [4]: C=O
In words: steady-state kinetics, glycolyl-CoA synthase (carboligation) activity. The series is classed as biochemical, Methylorubrum extorquens. The following applies: co-substrate formyl-CoA, apparent. An excerpt:
(§1) steady-state kinetics, glycolyl-CoA synthase (carboligation) activity on MeOXC (OXC, oxalyl-CoA decarboxylase)

Substrate in series [5]: CC(C)(COP(=O)(O)OP(=O)(O)OC[C@H]1O[C@@H](n2cnc3c(N)ncnc32)[C@H](O)[C@@H]1OP(=O)(O)O)[C@@H](O)C(=O)NCCC(=O)NCCSC=O
Described as above. The conditions noted are these: co-substrate formaldehyde, apparent. The series is classed as biochemical, Methylorubrum extorquens.
Excerpt: as §1

Substrate in series [6]: CC(C)(COP(=O)(O)OP(=O)(O)OC[C@H]1O[C@@H](n2cnc3c(N)ncnc32)[C@H](O)[C@@H]1OP(=O)(O)O)[C@@H](O)C(=O)NCCC(=O)NCCSC(=O)CO
In words: CoA transfer from glycolyl-CoA to formate, Michaelis-Menten. The conditions noted are these: formate 25 mM as acceptor. The series is classed as biochemical, Clostridium aminobutyricum. From the text:
CoA transfer from glycolyl-CoA to formate, Michaelis-Menten on AbfT (4-hydroxybutyrate CoA-transferase) | AbfT).

As for `Cc1ncc(C[n+]2csc(CCOP(=O)(O)OP(=O)(O)O)c2C)c(N)n1` [ThDP], the “X-ray crystal structure, 1.9 Å” value in series [1] is “The overall structure of MeOXC with bound ThDP (orange)”. Besides, in series [2], the “X-ray crystal structure, 2.4 Å” value is given as “Active site of MeOXC4. Substitution E135G gave rise to a cavity in the ThDP binding pocket”.

B1: MeOXC (OXC, oxalyl-CoA decarboxylase) (Methylorubrum extorquens AM1; A415C/E135G/S568G/Y497F) (protein)
chain: MTVQAQNIDAITAGAMPHEEPELTDGFHLVIDALKLNGIETIYNVPGIPITDLGRLAQAEGLRVISFRHEQNAGNAAAIAGFLTKKPGICLTVSAPGFLNGLTALANATTNCFPMILISGSSEREIVDLQQGDYGEMDQLAIAKPLCKAAFRVLHAADIGIGVARAIRAAVSGRPGGVYLDLPAKLFSQVIDADLGARSLVKVIDAAPAQLPAPAAIARALDVLKSAERPLIILGKGAAYAQADEAVRALVEESGIPYVPMSMAKGLLPDTHPLSAGAARSTALKDSDVVLLVGARLNWLLSHGKGKTWGEPGSKRFIQIDIEPREMDSNVEIVAPVVGDIGSCVEALLDGIRKDWKGAPSNWLETLRGKREANIAKMAPKLMKNSSPMCFHSALGALRTVIKERPDAILVNEGCNTLDLARGIIDMYQPRKRLDVGTWGVMGIGMGFAVAAAVETGKPVLAVEGDSAFGFSGMEVETICRYELPVCIVIFNNNGIFRGTDTDPTGRDPGTTVFVKNSRYDKMMEAFGGVGVNVTTPDELKRAVDEAMNSGKPTLINAEIDPAAGSEGGNIGSLNPQSTLKKK
notes: recombinant, produced in E. coli; purified; homotetramer; ThDP and Mg2+ dependent
Regarding B1, in series [3], the Km was determined as 122 ± 16 µM and the kcat came out at 0.21 ± 0.01 s^–1. In addition, in series [4] (MeOXC4), the Km came out at 5000 ± 1000 µM, the kcat is 2 ± 0.2 s⁻¹ and the kcat/Km was determined as 400 M⁻¹ s⁻¹. In series [5] (MeOXC4), the Km came out at 220 ± 30 µM, the kcat is 2.4 ± 0.2 s⁻¹ and the catalytic efficiency (kcat/Km) was determined as 11000 M⁻¹ s⁻¹.

B2: MeOXC (OXC, oxalyl-CoA decarboxylase) (Methylorubrum extorquens AM1) (protein)
chain: MTVQAQNIDAITAGAMPHEEPELTDGFHLVIDALKLNGIETIYNVPGIPITDLGRLAQAEGLRVISFRHEQNAGNAAAIAGFLTKKPGICLTVSAPGFLNGLTALANATTNCFPMILISGSSEREIVDLQQGDYEEMDQLAIAKPLCKAAFRVLHAADIGIGVARAIRAAVSGRPGGVYLDLPAKLFSQVIDADLGARSLVKVIDAAPAQLPAPAAIARALDVLKSAERPLIILGKGAAYAQADEAVRALVEESGIPYVPMSMAKGLLPDTHPLSAGAARSTALKDSDVVLLVGARLNWLLSHGKGKTWGEPGSKRFIQIDIEPREMDSNVEIVAPVVGDIGSCVEALLDGIRKDWKGAPSNWLETLRGKREANIAKMAPKLMKNSSPMCFHSALGALRTVIKERPDAILVNEGANTLDLARGIIDMYQPRKRLDVGTWGVMGIGMGFAVAAAVETGKPVLAVEGDSAFGFSGMEVETICRYELPVCIVIFNNNGIYRGTDTDPTGRDPGTTVFVKNSRYDKMMEAFGGVGVNVTTPDELKRAVDEAMNSGKPTLINAEIDPAAGSESGNIGSLNPQSTLKKK
notes: as for B1
In the case of B2, in series [4] (concentrations in Table S4), the Km worked out at 100000 ± 20000 µM, the kcat came to 0.2 ± 0.01 s⁻¹ and the kcat/Km stood at 2 M⁻¹ s⁻¹. Also, in series [5] (concentrations in Table S4), the Km stood at 3000 ± 2000 µM, the kcat is 0.31 ± 0.08 s⁻¹ and the specificity constant (kcat/Km) stood at 100 M⁻¹ s⁻¹.

B3: MeOXC (OXC, oxalyl-CoA decarboxylase) (Methylorubrum extorquens AM1; A415C) (protein)
chain: MTVQAQNIDAITAGAMPHEEPELTDGFHLVIDALKLNGIETIYNVPGIPITDLGRLAQAEGLRVISFRHEQNAGNAAAIAGFLTKKPGICLTVSAPGFLNGLTALANATTNCFPMILISGSSEREIVDLQQGDYEEMDQLAIAKPLCKAAFRVLHAADIGIGVARAIRAAVSGRPGGVYLDLPAKLFSQVIDADLGARSLVKVIDAAPAQLPAPAAIARALDVLKSAERPLIILGKGAAYAQADEAVRALVEESGIPYVPMSMAKGLLPDTHPLSAGAARSTALKDSDVVLLVGARLNWLLSHGKGKTWGEPGSKRFIQIDIEPREMDSNVEIVAPVVGDIGSCVEALLDGIRKDWKGAPSNWLETLRGKREANIAKMAPKLMKNSSPMCFHSALGALRTVIKERPDAILVNEGCNTLDLARGIIDMYQPRKRLDVGTWGVMGIGMGFAVAAAVETGKPVLAVEGDSAFGFSGMEVETICRYELPVCIVIFNNNGIYRGTDTDPTGRDPGTTVFVKNSRYDKMMEAFGGVGVNVTTPDELKRAVDEAMNSGKPTLINAEIDPAAGSESGNIGSLNPQSTLKKK
notes: as for B1
Regarding B3, in series [4] (MeOXC1), the Michaelis constant (Km) stood at 30000 ± 2000 µM, the kcat amounted to 0.34 ± 0.01 s⁻¹ and the kcat/Km turned out to be 10 M⁻¹ s⁻¹. In addition, in series [5] (MeOXC1), the Km was 160 ± 50 µM, the kcat was 0.23 ± 0.01 s⁻¹ and the kcat/Km is 1400 M⁻¹ s⁻¹.

B4: MeOXC (OXC, oxalyl-CoA decarboxylase) (Methylorubrum extorquens AM1; A415C/E135G/S568G) (protein)
chain: MTVQAQNIDAITAGAMPHEEPELTDGFHLVIDALKLNGIETIYNVPGIPITDLGRLAQAEGLRVISFRHEQNAGNAAAIAGFLTKKPGICLTVSAPGFLNGLTALANATTNCFPMILISGSSEREIVDLQQGDYGEMDQLAIAKPLCKAAFRVLHAADIGIGVARAIRAAVSGRPGGVYLDLPAKLFSQVIDADLGARSLVKVIDAAPAQLPAPAAIARALDVLKSAERPLIILGKGAAYAQADEAVRALVEESGIPYVPMSMAKGLLPDTHPLSAGAARSTALKDSDVVLLVGARLNWLLSHGKGKTWGEPGSKRFIQIDIEPREMDSNVEIVAPVVGDIGSCVEALLDGIRKDWKGAPSNWLETLRGKREANIAKMAPKLMKNSSPMCFHSALGALRTVIKERPDAILVNEGCNTLDLARGIIDMYQPRKRLDVGTWGVMGIGMGFAVAAAVETGKPVLAVEGDSAFGFSGMEVETICRYELPVCIVIFNNNGIYRGTDTDPTGRDPGTTVFVKNSRYDKMMEAFGGVGVNVTTPDELKRAVDEAMNSGKPTLINAEIDPAAGSEGGNIGSLNPQSTLKKK
notes: as for B1
Consider B4, for which, in series [4] (MeOXC3), the Michaelis-Menten constant (Km) was determined as 12000 ± 3000 µM, the kcat came out at 1.6 ± 0.1 s⁻¹ and the kcat/Km was determined as 130 M⁻¹ s⁻¹. Further, in series [5] (MeOXC3), the Km worked out at 170 ± 40 µM, the kcat amounted to 1.6 ± 0.1 s⁻¹ and the kcat/Km was 9400 M⁻¹ s⁻¹.

B5: MeOXC (OXC, oxalyl-CoA decarboxylase) (Methylorubrum extorquens AM1; A415C/S568G) (protein)
chain: MTVQAQNIDAITAGAMPHEEPELTDGFHLVIDALKLNGIETIYNVPGIPITDLGRLAQAEGLRVISFRHEQNAGNAAAIAGFLTKKPGICLTVSAPGFLNGLTALANATTNCFPMILISGSSEREIVDLQQGDYEEMDQLAIAKPLCKAAFRVLHAADIGIGVARAIRAAVSGRPGGVYLDLPAKLFSQVIDADLGARSLVKVIDAAPAQLPAPAAIARALDVLKSAERPLIILGKGAAYAQADEAVRALVEESGIPYVPMSMAKGLLPDTHPLSAGAARSTALKDSDVVLLVGARLNWLLSHGKGKTWGEPGSKRFIQIDIEPREMDSNVEIVAPVVGDIGSCVEALLDGIRKDWKGAPSNWLETLRGKREANIAKMAPKLMKNSSPMCFHSALGALRTVIKERPDAILVNEGCNTLDLARGIIDMYQPRKRLDVGTWGVMGIGMGFAVAAAVETGKPVLAVEGDSAFGFSGMEVETICRYELPVCIVIFNNNGIYRGTDTDPTGRDPGTTVFVKNSRYDKMMEAFGGVGVNVTTPDELKRAVDEAMNSGKPTLINAEIDPAAGSEGGNIGSLNPQSTLKKK
notes: as for B1
Take B5: in series [4] (MeOXC2), the Km came to 12000 ± 3000 µM, the kcat was found to be 0.57 ± 0.05 s⁻¹ and the catalytic efficiency (kcat/Km) turned out to be 50 M⁻¹ s⁻¹. Also, in series [5] (MeOXC2), the Km turned out to be 90 ± 20 µM, the kcat was found to be 0.43 ± 0.02 s⁻¹ and the kcat/Km came to 5100 M⁻¹ s⁻¹.

B6: AbfT (4-hydroxybutyrate CoA-transferase) (Clostridium aminobutyricum) (protein)
chain: MDWKKIYEDRTCTADEAVKSIKSGDRVLFAHCVAEPPVLVEAMVANAAAYKNVTVSHMVTLGKGEYSKPEYKENFTFEGWFTSPSTRGSIAEGHGQFVPVFFHEVPSLIRKDIFHVDVFMVMVSPPDHNGFCCVGVSSDYTMQAIKSAKIVLAEVNDQVPVVYGDTFVHVSEIDKFVETSHPLPEIGLPKIGEVEAAIGKHCASLIEDGSTLQLGIGAIPDAVLSQLKDKKHLGIHSEMISDGVVDLYEAGVIDCSQKSIDKGKMAITFLMGTKRLYDFAANNPKVELKPVDYINHPSVVAQCSKMVCINACLQVDFMGQIVSDSIGTKQFSGVGGQVDFVRGASMSIDGKGKAIIAMPSVAKKKDGSMISKIVPFIDHGAAVTTSRNDADYVVTEYGIAEMKGKSLQDRARALINIAHPDFKDELKAEFEKRFNAAF
notes: purified
B6: in series [6], the Michaelis constant (Km) turned out to be 12 ± 1 µM and the kcat is 0.40 ± 0.01 s^–1.
